Test [1] concerns the target T1, Notch1 (Homo sapiens, UniProt P46531). Briefly: Western blot of Notch1 ICD formation after DLL4 stimulation of Notch1-Hela cells. More on the design: expressed in transfected cells; host or cells: HeLa (Notch1-Hela). The format is cell-based. Particulars: DLL4-fc coated wells, five hours. As to the method:
Cleavage of Notch receptors by furin, ADAM, and gamma-secretase results in formation of the Notch intracellular domain (ICD) that then triggers downstream Notch signaling in the nucleus. In certain embodiments, the ability of Notch1 receptor antibodies to block ligand-mediated receptor activation was determined by Western blot analysis. Notch1-Hela cells were grown in suspension culture in 293-SMII media (Gibco). Cultured cells were transferred to 96-well plates in which select wells had been pre-coated with human DLL4-fc fusion protein ([…]) in DMEM plus 2% FBS and 1 μM MG132 (Calbiochem). Antibodies to generated against a membrane proximal region of the extracellular domain of human Notch1 were added to the cell culture medium, and cells were incubated at 37° C. for five hours. Wells were then aspirated and the cells resuspended in 2×SDS running buffer. Samples were sonicated at room temperature, and then subjected to SDS-PAGE and western blot analysis using an antibody specific for the cleaved Notch1 ICD according to the manufacturer's recommendations (Cell Signaling Technology).
Background: In western blotting, separated proteins are transferred to a membrane and probed.

Another test concerns C8 colon tumor cells. The experiment in a line: C8 colon tumor xenograft, treatment of established tumors. It counts as in vivo, NOD/SCID mice. To be noted: C8 colon tumors ~210 mm^3 at start, 10 mg/kg i.p. twice a week. As to the method:
Tumor cells from a patient sample (solid tumor biopsy or pleural effusion) that have been passaged as a xenograft in mice were prepared for repassaging into experimental animals. Tumor tissue was removed, cut up into small pieces, minced completely using sterile blades, and single cell suspensions obtained by enzymatic digestion and mechanical disruption. Dissociated tumor cells were then injected subcutaneously into the mammary fat pads, for breast tumors, or into the flank, for non-breast tumors, of NOD/SCID mice to elicit tumor growth. In certain embodiments, ESA+, CD44+, CD24−/low, Lin− tumorigenic tumor cells are isolated as described in detail above and injected.
In certain embodiments, freshly isolated C8 colon tumor cells (225 cells per animal) were implanted subcutaneously into NOD/SCID mice. Following tumor cell injection, animals were monitored for tumor growth. Tumors were allowed to grow for 48 days until they reached an average size of approximately 210 mm^3 and randomized into two groups (n=10 per group). The animals were treated with either control antibody or antibody that binds to the membrane proximal region of the extracellular domain of human Notch1, 52M51, (10 mg/kg) dosed i.p. twice a week. Tumor size was assessed on days 55, 57, and 62.

Test [2] has as its target T1, Notch1. The experiment in a line: ELISA of conditioned media from cotransfected HEK 293 cells for Notch1 binding activity. To be noted: candidate humanized chains cotransfected into HEK 293 cells. As to the method: The functionality of each candidate variant humanized heavy and light chain was tested by cotransfection into mammalian cells. Each of the nine candidate humanized 52M51 heavy chains described above was cotransfected into HEK 293 cells with the murine 52M51 light chain cDNA, and conditioned media was assayed by ELISA for Notch1 binding activity. […] This variant “52M51-H4” (SEQ ID NO:22) contains, in addition to murine CDRs, variation at 3 framework positions within the Vh framework, Kabat positions 20, 48, and 71 in comparison with an example human framework (e.g. IGHV1-24). The 52M51-H4 humanized heavy chain was then cotransfected into HEK293 cells with each of the eight candidate humanized light chains, and conditioned media was again assayed for antigen binding by ELISA. […] Variant 52M51-L3 contains, in addition to murine CDRs, variation at 1 framework position at Kabat position 49 in comparison to an example human framework (e.g., IGLV7-46). Two humanized variant antibodies, 52M51H4L3 and 52M51H4L4, were developed. 52M51H4L3, as encoded by DNA deposited with the ATCC, under the conditions of the Budapest Treaty on Oct. 15, 2008, and assigned designation number PTA-9549.
In general terms: ELISA stands for enzyme-linked immunosorbent assay.

Test [3] addresses T1, Notch1. Briefly: hDLL4-fc-induced Notch reporter luciferase assay in Notch1-Hela cells. The format is cell-based. More on the design: expressed in transfected cells; host or cells: HeLa (Notch1-Hela). Particulars: plates coated with 200 ng/well hDLL4-fc, 48 hours after transfection. On the procedure:
In certain embodiments, the ability of Notch1 receptor antibodies to block ligand-mediated Notch signaling was determined. In certain embodiments, HeLa cells engineered to overexpress Notch1 (Notch1-Hela) cultured in DMEM supplemented with antibiotics and 10% FCS were co-transfected with 1) pGL4 8×CBS firefly luciferase containing a Notch responsive promoter upstream of a firefly luciferase reporter gene to measure Notch signaling levels in response to DLL4 ligand; and 2) a Renilla luciferase reporter (Promega; Madison, Wis.) as an internal control for transfection efficiency. Transfected cells were added to cultures plates coated overnight with 200 ng/well of hDLL4-fc protein, and antibodies to Notch1 were then added to the cell culture medium. Forty-eight hours following transfection, luciferase levels were measured using a dual luciferase assay kit (Promega; Madison, Wis.) with firefly luciferase activity normalized to Renilla luciferase activity. The ability of antibodies to inhibit Notch1 pathway activation was thus determined.

“Also recorded” adds a separate entry of the source.

T1 sequence (P46531 19-2555): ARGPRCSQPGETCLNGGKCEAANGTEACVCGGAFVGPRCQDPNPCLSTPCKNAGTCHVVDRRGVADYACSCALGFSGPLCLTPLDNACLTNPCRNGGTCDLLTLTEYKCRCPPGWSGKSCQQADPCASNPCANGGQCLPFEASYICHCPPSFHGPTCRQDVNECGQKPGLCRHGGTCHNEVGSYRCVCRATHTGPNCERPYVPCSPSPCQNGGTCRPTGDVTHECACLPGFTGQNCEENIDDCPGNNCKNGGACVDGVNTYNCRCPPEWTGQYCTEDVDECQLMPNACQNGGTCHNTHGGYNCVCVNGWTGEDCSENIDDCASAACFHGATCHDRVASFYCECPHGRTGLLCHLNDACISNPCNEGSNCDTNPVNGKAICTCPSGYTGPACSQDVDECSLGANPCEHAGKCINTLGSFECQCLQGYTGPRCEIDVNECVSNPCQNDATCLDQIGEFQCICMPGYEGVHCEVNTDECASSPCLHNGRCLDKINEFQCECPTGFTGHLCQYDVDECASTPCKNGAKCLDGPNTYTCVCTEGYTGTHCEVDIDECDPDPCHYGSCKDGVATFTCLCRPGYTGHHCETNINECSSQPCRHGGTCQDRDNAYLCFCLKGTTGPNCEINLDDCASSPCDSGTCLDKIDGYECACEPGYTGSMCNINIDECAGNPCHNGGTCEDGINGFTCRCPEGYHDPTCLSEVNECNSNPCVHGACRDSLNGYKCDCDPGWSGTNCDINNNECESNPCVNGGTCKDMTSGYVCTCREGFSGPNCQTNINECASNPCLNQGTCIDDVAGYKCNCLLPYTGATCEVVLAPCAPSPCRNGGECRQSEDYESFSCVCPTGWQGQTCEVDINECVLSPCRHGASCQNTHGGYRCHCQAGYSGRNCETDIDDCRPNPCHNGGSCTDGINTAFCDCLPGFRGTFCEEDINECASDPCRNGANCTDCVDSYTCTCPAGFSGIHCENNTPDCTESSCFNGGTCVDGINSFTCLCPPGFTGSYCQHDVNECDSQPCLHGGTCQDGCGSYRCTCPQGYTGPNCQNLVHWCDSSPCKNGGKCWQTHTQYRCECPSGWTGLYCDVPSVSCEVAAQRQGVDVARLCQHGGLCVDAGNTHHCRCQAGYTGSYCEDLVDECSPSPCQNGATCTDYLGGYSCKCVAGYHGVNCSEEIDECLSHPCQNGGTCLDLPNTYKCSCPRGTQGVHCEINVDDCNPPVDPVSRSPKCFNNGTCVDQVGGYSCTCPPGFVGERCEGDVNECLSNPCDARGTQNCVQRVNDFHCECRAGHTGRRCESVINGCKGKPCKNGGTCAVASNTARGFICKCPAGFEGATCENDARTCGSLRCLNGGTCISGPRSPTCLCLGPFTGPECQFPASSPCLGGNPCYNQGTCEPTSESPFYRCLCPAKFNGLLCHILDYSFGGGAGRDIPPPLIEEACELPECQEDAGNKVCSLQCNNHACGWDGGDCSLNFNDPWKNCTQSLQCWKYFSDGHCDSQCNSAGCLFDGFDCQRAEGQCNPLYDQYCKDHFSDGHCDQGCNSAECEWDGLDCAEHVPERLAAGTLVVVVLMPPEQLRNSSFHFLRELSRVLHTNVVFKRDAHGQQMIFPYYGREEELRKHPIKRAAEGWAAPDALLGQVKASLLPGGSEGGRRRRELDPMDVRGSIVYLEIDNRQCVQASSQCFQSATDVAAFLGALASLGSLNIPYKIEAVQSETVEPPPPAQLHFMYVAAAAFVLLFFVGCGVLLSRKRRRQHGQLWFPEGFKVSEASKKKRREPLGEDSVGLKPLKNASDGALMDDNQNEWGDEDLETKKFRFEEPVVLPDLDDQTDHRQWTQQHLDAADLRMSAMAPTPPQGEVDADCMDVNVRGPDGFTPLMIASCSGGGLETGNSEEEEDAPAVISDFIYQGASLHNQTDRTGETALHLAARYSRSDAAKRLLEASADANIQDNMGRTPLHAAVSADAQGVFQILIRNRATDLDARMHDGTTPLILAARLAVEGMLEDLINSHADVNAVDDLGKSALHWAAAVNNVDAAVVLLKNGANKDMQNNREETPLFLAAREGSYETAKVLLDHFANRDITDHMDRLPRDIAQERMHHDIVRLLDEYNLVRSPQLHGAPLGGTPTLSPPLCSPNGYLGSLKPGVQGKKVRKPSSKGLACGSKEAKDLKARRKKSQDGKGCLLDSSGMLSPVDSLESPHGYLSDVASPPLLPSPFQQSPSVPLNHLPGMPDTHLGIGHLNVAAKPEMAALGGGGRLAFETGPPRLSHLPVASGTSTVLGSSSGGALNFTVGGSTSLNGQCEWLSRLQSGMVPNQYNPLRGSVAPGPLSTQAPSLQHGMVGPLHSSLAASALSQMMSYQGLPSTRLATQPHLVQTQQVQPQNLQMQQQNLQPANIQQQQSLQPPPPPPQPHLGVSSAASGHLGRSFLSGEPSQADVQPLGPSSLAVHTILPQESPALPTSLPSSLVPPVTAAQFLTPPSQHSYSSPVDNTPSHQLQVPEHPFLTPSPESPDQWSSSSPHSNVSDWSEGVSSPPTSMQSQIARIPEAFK

B1: 52M51: murine monoclonal antibody to membrane proximal region of human Notch1; hybridoma ATCC PTA-9405; heavy SEQ ID NO:10, light SEQ ID NO:4 (antibody)
heavy: MEWTWVFLFLLSVTAGVHSQVQLQQSGAELMKPGASVKISCKAAGYTMRGYWIEWIKQRPGHGLEWIGQILPGTGRTNYNEKFKGKATFTADTSSNTANMQLSSLTSEDSAVYYCARFDGNYGYYAMDYWGQGSSVTVSSAKTTPPSVYPLAPGSAAQTNSMVTLGCLVKGYFPEPVTVTWNSGSLSSGVHTFPAVLQSDLYTLSSSVTVPSSPRPSETVTCNVAHPASSTKVDKKIVPRDCGCKPCICTVPEVSSVFIFPPKPKDVLTITLTPKVTCVVVDISKDDPEVQFSWFVDDVEVHTAQTQPREEQFNSTFRSVSELPIMHQDWLNGKEFKCRVNSAAFPAPIEKTISKTKGRPKAPQVYTIPPPKEQMAKDKVSLTCMITDFFPEDITVEWQWNGQPAENYKNTQPIMNTNGSYFVYSKLNVQKSNWEAGNTFTCSVLHEGLHNHHTEKSLSHSPGK
light: MAWISLILSLLALSSGAISQAVVTQESALTTSPGETVTLTCRSSTGAVTTSNYANWVQEKPDHLFTGLIGGTNNRAPGVPARFSGSLIGDKAALTITGAQTEDEAIYFCALWYSNHWVFGGGTKLTVLGQPKSSPSVTLFPPSSEELETNKATLVCTITDFYPGVVTVDWKVDGTPVTQGMETTQPSKQSNNKYMASSYLTLTARAWERHSSYSCQVTHEGHTVEKSLSRADCS
modifications: Synthetic heavy chain of antibody 52M51; Synthetic light chain of antibody 52M51
As to B1, the “Notch1 ICD formation after ligand stimulation” value with Notch1 [1] is given as “significantly inhibited the generation of ICD; also recorded: reduce ICD formation to background levels”. In addition, the “tumor growth compared to control antibody” value with C8 colon tumor cells is reported as “statistically significant (p=0.0006) inhibition of tumor growth; also recorded: significantly (p=0.0006) inhibited tumor growth”.

B2: 52M51-H4: humanized 52M51 heavy chain variant (SEQ ID NO:22), tested with the murine 52M51 light chain (antibody)
heavy: QVQLVQSGAEVKKPGASVKISCKVSGYTLRGYWIEWVRQAPGKGLEWIGQILPGTGRTNYNEKFKGRVTMTADTSTDTAYMELSSLRSEDTAVYYCARFDGNYGYYAMDYWGQGTTVTVSSASTKGPSVFPLAPCSRSTSESTAALGCLVKDYFPEPVTVSWNSGALTSGVHTFPAVLQSSGLYSLSSVVTVPSSNFGTQTYTCNVDHKPSNTKVDKTVERKCCVECPPCPAPPVAGPSVFLFPPKPKDTLMISRTPEVTCVVVDVSHEDPEVQFNWYVDGVEVHNAKTKPREEQFNSTFRVVSVLTVVHQDWLNGKEYKCKVSNKGLPAPIEKTISKTKGQPREPQVYTLPPSREEMTKNQVSLTCLVKGFYPSDIAVEWESNGQPENNYKTTPPMLDSDGSFFLYSKLTVDKSRWQQGNVFSCSVMHEALHNHYTQKSLSLSPGK
light: QAVVTQESALTTSPGETVTLTCRSSTGAVTTSNYANWVQEKPDHLFTGLIGGTNNRAPGVPARFSGSLIGDKAALTITGAQTEDEAIYFCALWYSNHWVFGGGTKLTVLGQPKSSPSVTLFPPSSEELETNKATLVCTITDFYPGVVTVDWKVDGTPVTQGMETTQPSKQSNNKYMASSYLTLTARAWERHSSYSCQVTHEGHTVEKSLSRADCS
Regarding B2, the “Notch1 / antigen binding by ELISA” value with Notch1 [2] is reported as “most robust binding”.

B3: 52M51H4L3: humanized variant of 52M51, heavy chain H4 and light chain L3; DNA deposited as ATCC PTA-9549 (antibody)
heavy: B2 heavy
light: SGVDSQAVVTQEPSLTVSPGGTVTLTCRSSTGAVTTSNYANWFQQKPGQAPRTLIGGTNNRAPGVPARFSGSLLGGKAALTLSGAQPEDEAEYYCALWYSNHWVFGGGTKLTVLGQPKAAPSVTLFPPSSEELQANKATLVCLVSDFYPGAVTVAWKADGSPVKVGVETTKPSKQSNNKYAASSYLSLTPEQWKSHRSYSCRVTHEGSTVEKTVAPAECS
In the case of B3, the “Notch signaling (luciferase activity)” value with Notch1 [3] is recorded as “significantly inhibited Notch signaling”.

The record behind these values is patent US9499613B2, “Notch1 receptor binding agents and methods of use thereof” (OncoMed Pharmaceuticals, Inc., priority 2008, dated 2016).
